B1: Abl interactor 1 (Homo sapiens), Q8IZP0 (parent)
chain: MAELQMLLEEEIPSGKRALIESYQNLTRVADYCENNYIQATDKRKALEETKAYTTQSLASVAYQINALANNVLQLLDIQASQLRRMESSINHISQTVDIHKEKVARREIGILTTNKNTSRTHKIIAPANMERPVRYIRKPIDYTVLDDVGHGVKWLKAKHGNNQPARTGTLSRTNPPTQKPPSPPMSGRGTLGRNTPYKTLEPVKPPTVPNDYMTSPARLGSQHSPGRTASLNQRPRTHSGSSGGSGSRENSGSSSIGIPIAVPTPSPPTIGPENISVPPPSGAPPAPPLAPLLPVSTVIAAPGSAPGSQYGTMTRQISRHNSTTSSTSSGGYRRTPSVTAQFSAQPHVNGGPLYSQNSISIAPPPPPMPQLTPQIPLTGFVARVQENIADSPTPPPPPPPDDIPMFDDSPPPPPPPPVDYEDEEAAVVQYNDPYADGDPAWAPKNYIEKVVAIYDYTKDKDDELSFMEGAIIYVIKKNDDGWYEGVCNRVTGLFPGNYVESIMHYTD

Variants of: B1
Conditions: with p85a_human PIK3R1, P27986
p85a_human PIK3R1, P27986, sequence (P27986 whole entry): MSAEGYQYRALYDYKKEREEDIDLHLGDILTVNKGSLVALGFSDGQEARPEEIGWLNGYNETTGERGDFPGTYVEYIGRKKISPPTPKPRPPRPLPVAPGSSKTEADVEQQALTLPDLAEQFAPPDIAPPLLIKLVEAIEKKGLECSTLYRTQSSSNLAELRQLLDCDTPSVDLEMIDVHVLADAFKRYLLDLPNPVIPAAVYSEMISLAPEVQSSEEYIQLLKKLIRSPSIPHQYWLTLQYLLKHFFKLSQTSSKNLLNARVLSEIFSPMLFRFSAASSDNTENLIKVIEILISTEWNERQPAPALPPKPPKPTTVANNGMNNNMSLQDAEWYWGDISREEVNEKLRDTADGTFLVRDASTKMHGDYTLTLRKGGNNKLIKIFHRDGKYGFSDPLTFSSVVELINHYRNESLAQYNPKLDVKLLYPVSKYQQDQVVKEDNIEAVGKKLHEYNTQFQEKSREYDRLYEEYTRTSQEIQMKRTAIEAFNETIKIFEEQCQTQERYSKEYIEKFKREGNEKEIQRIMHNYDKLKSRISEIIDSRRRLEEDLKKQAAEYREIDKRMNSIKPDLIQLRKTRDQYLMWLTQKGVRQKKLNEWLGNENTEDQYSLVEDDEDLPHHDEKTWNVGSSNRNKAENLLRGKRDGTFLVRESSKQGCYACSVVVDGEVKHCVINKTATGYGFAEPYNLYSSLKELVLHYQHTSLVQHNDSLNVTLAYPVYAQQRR

Row | effect of a mutation on the interaction | Variant
1 | disrupting interaction | Y213F
